Measured values taken from the PETadex activity labels (doi:10.1101/2025.08.30.673199).
Positions count from the first letter of the chain named.

B1: unnamed (protein)
chain: MKAPLFKLAAFTLGVSLSSVALATNPGGGGAGSNPDTGTGFPGVSSFSADGSFATTSGSAGLSCTVFRPSTLGANGLKHPIIVWGNGTTASPSTYSGILEHWASHGFVVIAANTSNAGTGQDMLNCVDYLTTQNNRSTGTYANKLDLNRIGAAGHSQGGGGTIMAGQDYRIKVTAPFQPYTIGLGHNSSSQSNQNGPMFLMTGSADTIASPTLNALPVYNRANVPVFWGELSGASHFEPMGSAGDFRGPSTAWFRYHLMDDASAEDTFYGSNCDLCTDNDWDVRRKGIN
B2: unnamed (protein)
chain: B1 chain with N187A, M240V
B3: unnamed (protein)
chain: B1 chain with T88Y, M240V
B4: unnamed (protein)
chain: B1 chain with Y180F, M240V
B5: unnamed (protein)
chain: B1 chain with S156A, M240V
B6: unnamed (protein)
chain: B1 chain with D206A, M240V
B7: unnamed (protein)
chain: B1 chain with F237I
B8: unnamed (protein)
chain: B1 chain with M240V

substrate: PET; experiment: Proxy for plastic degradation [Released monomer concentration (HPLC/LC-MS) (TPA+MHET+BHET)]; conditions: pH 9

Row | Protein | Proxy for plastic degradation
1 | B1 | 870 µM
2 | B2 | 920 µM
3 | B3 | 345 µM
4 | B4 | 375 µM
5 | B5 | 10 µM
6 | B6 | 10 µM
7 | B7 | 600 µM
8 | B8 | 1020 µM
